# Test results reported in US20170121398A1 (PROTHENA BIOSCIENCES, published 2017).
# B1: mouse antibody 6C1 (antibody, IgG1, V domains shown)
# VH: EVQLVESGGGLVQPGGSLKLSCAASGFTFSNYYMSWVRQTPEKRLEWVAYISIDGNNIYHPDSVKGRFTISRDNAKNTLYLQMSSLKSEDTAMYYCARDSDYGYFDVWGTGTTVTVSS
# VL: DVLMTQTPLSLPVSLGDQASISCRSSQSIVHSNGNTYLEWYLQKRGQSPKLLIYKVSKRFSGVPDRFSGSGSGTDFILKISRVEAEDLGVYYCFQGSHVPLTFGGGTKLELK
# notes: also called m6C1; mis-TTR mAb 6C1
# Biological target: pH4.0-treated TTR (human, UniProt P02766 21-147)
# Experiment: ELISA, pH4-treated TTR-His captured on an anti-His coat, anti-mouse HRP detection, OD450
binder,measurement,value
B1,EC50 (read off the curve),~0.2 µg/mL
